# Test system: CsrA-H6 (Escherichia coli (stated identical to S. Typhimurium CsrA))
# Experiment: EMSA
substance,measurement,value
hilE leader RNA (+153 to +280),Kd,0.037 µM
